This data set deals with NagRBt (formerly YvoABt) (Bacillus thuringiensis strain Bti75, UniProt A0A1T3UL85 1-243). Description: EMSA; EMSA: 10 mM Tris-HCl pH 8.0, 1 mM MgCl2, 50 mM NaCl, 0.5 mM DTT, 0.5 mM EDTA, 5% glycerol, 30 C, 30 min; 0.2 uM probe; competition with 3.0 uM NagRBt, 400-fold. Particulars: protein: recombinant; tags: C-terminal His (pET-28a(+)); chain copies: 2; unlabeled (EB stain); blunt. A general note: A gel shift assay detects complexes by their altered migration in electrophoresis.

The results in this text go back to PMC6141813, “NagRBt Is a Pleiotropic and Dual Transcriptional Regulator in Bacillus thuringiensis”.

B1: crr (ptsA) dre probe (H) (dsDNA)
DNA 1: TTTTTTTGCCCAACTTGTCTAGAGGTCTTTACTACATTTT
DNA 2: AAAATGTAGTAAAGACCTCTAGACAAGTTGGGCAAAAAAA
As for B1, the binding result is “binds”.

B2: chiA dre probe (D) (dsDNA)
DNA 1: AACCAATCATCTAGACAACTATATAACACGAACGTTTTAC
DNA 2: GTAAAACGTTCGTGTTATATAGTTGTCTAGATGATTGGTT
Regarding B2, the binding result is on record as “binds”.
